The numbers were not newly measured in paper PMC4221657, which cites them from elsewhere.

pKd: −log10 of the molar value.

In series [1] the target is PAC1 receptor (Homo sapiens) (UniProt P41586).
The target in series [2] is VPAC1 receptor (Homo sapiens) (UniProt P32241).
The target of series [3] is VPAC2 receptor (Homo sapiens) (UniProt P41587).
UniProt P41587, sequence (P41587 24-438): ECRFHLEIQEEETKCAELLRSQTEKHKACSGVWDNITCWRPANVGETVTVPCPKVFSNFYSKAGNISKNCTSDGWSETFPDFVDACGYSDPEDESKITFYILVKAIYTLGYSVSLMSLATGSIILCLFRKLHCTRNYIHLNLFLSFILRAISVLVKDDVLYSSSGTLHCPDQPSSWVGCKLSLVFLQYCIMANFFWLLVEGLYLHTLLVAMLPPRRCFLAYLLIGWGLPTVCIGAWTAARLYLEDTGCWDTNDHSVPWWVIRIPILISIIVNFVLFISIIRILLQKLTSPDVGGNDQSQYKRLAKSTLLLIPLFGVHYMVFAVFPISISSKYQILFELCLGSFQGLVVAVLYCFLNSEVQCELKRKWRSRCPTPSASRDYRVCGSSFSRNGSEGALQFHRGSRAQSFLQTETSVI

UniProt P32241, sequence (P32241 31-457): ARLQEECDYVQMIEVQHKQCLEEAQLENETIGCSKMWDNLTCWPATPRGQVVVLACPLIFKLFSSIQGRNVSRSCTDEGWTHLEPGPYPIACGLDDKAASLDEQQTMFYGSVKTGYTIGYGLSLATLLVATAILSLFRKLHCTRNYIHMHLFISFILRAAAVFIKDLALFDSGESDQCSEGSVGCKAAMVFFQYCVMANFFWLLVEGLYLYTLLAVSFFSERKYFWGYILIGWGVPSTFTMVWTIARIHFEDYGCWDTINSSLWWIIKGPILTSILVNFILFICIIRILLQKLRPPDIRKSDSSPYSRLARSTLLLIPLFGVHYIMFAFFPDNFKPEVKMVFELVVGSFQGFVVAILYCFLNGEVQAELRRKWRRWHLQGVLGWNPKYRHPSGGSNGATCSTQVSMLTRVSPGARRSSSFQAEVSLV
UniProt P41586, sequence (P41586 21-468): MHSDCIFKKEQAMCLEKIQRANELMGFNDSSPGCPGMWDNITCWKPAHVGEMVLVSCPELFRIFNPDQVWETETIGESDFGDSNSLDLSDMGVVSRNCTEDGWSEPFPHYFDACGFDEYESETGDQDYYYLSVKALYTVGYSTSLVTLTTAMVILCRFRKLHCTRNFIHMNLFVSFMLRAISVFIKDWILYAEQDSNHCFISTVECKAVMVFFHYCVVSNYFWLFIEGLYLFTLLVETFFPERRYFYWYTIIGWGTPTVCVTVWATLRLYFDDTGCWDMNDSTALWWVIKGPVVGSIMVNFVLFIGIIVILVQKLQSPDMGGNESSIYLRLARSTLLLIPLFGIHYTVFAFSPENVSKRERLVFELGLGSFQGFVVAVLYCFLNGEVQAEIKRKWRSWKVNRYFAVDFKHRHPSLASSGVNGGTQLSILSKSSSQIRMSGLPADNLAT

By pKd is commonly meant the negative decadic logarithm of the Kd, by convention in mol/L. For PACAP38 (from UniProt P18509), the pKd in series [1] was 9.30; in series [2], 9.00; in series [3], 9.00.
